pKd: −log10 of the molar value.
Key:
[1] = molecular target: recombinant His-tagged full-length ERG (UniProt P11308); assay: Kd table of synthetic peptides on ERG; assay not given
[2] = molecular target: recombinant His-tagged full-length ERG (UniProt P11308); assay: OctetRED; Kd table of synthetic peptides on ERG

recombinant His-tagged full-length ERG, sequence (P11308 whole entry): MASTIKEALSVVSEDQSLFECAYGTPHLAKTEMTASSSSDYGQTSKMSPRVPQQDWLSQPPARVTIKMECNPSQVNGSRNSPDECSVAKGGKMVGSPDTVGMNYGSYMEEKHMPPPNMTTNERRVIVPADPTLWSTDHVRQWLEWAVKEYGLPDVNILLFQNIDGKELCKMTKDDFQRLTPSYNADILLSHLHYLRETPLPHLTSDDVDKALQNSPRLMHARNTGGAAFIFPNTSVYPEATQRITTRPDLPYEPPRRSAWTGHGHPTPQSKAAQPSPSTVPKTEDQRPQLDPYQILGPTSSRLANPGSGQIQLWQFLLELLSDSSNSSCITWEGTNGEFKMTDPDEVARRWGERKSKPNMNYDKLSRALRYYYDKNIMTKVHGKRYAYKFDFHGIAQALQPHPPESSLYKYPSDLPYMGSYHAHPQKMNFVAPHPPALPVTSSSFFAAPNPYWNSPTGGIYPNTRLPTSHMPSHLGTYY

“3-mer PYL capped at both termini (Ac-PYL-NH2) (peptide)” showed a pKd [1] of 5.12.
Substance “3-mer PYL capped at the N-terminus only (Ac-PYL) (peptide)” has a pKd [1] of 5.06.
In the case of “7-mer LPPYLFT capped at the C-terminus only (LPPYLFT-NH2) (peptide)”, the pKd [2] was under 4.00.
In the case of “EIP1 capped at both termini (Ac-LPPYLFT-NH2) (peptide)”, the pKd [2] was under 4.00 and the pKd [1] was under 4.00.

— patent publication US20180273595A1
